biological target: acetylcholine receptor (Homo sapiens, UniProt P02708); experiment: SPR binding affinity (RU) of optimized 5mer/6mer/7mer peptides, Examples 6-7; details: SPR, Resonance Units; peptides tested at 10 μM; 6mer-2 Bottom sequence
Summary of the method: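 Peptides were tested at 10 μM by surface plasmon resonance against the receptor, with binding reported as response units. Library sequences were built from frequent (top) or infrequent (bottom) amino acid combinations in 5mer, 6mer-1 and 6mer-2 series.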

Sequence of acetylcholine receptor (P02708 21-457): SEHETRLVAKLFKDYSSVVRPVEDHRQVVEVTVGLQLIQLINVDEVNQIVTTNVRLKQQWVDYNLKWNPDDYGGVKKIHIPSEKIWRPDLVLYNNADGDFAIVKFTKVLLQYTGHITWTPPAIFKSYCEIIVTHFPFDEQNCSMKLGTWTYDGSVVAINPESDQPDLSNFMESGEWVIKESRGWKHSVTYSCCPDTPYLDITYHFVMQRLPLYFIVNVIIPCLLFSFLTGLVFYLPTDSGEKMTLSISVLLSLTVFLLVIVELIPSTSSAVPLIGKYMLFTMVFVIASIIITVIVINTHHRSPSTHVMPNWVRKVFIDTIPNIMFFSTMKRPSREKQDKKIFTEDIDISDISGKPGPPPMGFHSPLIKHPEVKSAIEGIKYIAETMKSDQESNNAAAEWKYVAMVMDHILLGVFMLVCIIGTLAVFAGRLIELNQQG

First: 6mer-2-786 (RMEMRK)
Second: 6mer-2-787 (RIWHKK)
The Binding affinity of the first is higher: 30 Ru for the first, 19 Ru for the second.

First: 6mer-2-788 (KKEKKK)
Second: 6mer-2-789 (KNENRK)
The Binding affinity of the first is higher: 30 Ru for the first, 24 Ru for the second.

Going from 6mer-2-790 (RCAGRR) to 6mer-2-791 (KNMNRK), the Binding affinity rises from 23 Ru to 27 Ru.

First: 6mer-2-792 (RAEDKR)
Second: 6mer-2-793 (RMHKKR)
The Binding affinity of the first is lower: 13 Ru for the first, 29 Ru for the second.

Going from 6mer-2-794 (KAEMRR) to 6mer-2-795 (RTHNKR), the Binding affinity falls from 19 Ru to 16 Ru.

Compared with 6mer-2-796 (RMMARR), 6mer-2-797 (RHCIKR) is lower in Binding affinity: 32 Ru for the first, 19 Ru for the second.

Compared with 6mer-2-798 (RDTPKK), 6mer-2-799 (KCSAKK) is lower in Binding affinity: 17 Ru for the first, 13 Ru for the second.

Going from 6mer-2-800 (RTAWKK) to 6mer-2-801 (RPNIRK), the Binding affinity rises from 11 Ru to 24 Ru.

First: 6mer-2-802 (KETKRR)
Second: 6mer-2-803 (RNKERK)
The Binding affinity of the first is higher: 24 Ru for the first, 18 Ru for the second.

Going from 6mer-2-804 (RNCGKR) to 6mer-2-805 (RDTMKK), the Binding affinity falls from 21 Ru to 12 Ru.

Going from 6mer-2-806 (KHCVRK) to 6mer-2-807 (KIWNRK), the Binding affinity falls from 30 Ru to 28 Ru.

Compared with 6mer-2-808 (RKKFKK), 6mer-2-809 (REPWRR) is lower in Binding affinity: 21 Ru for the first, 18 Ru for the second.

Going from 6mer-2-810 (KHAKKK) to 6mer-2-811 (KAMKRK), the Binding affinity falls from 18 Ru to 16 Ru.

Going from 6mer-2-812 (KPPEKR) to 6mer-2-813 (KKMDRR), the Binding affinity falls from 33 Ru to 29 Ru.

Going from 6mer-2-814 (RYMERK) to 6mer-2-815 (KICGRK), the Binding affinity rises from 28 Ru to 30 Ru.

First: 6mer-2-816 (RKMGKR)
Second: 6mer-2-817 (KCNDKK)
The Binding affinity of the first is lower: 15 Ru for the first, 22 Ru for the second.

Going from 6mer-2-818 (KTPERK) to 6mer-2-819 (KFSVRR), the Binding affinity rises from 13 Ru to 23 Ru.

Going from 6mer-2-820 (RPNNKK) to 6mer-2-821 (RPTMKR), the Binding affinity rises from 24 Ru to 33 Ru.

Going from 6mer-2-822 (RCTAKK) to 6mer-2-823 (REDWRK), the Binding affinity rises from 13 Ru to 25 Ru.

Going from 6mer-2-824 (RITNKR) to 6mer-2-825 (KIHARK), the Binding affinity falls from 26 Ru to 11 Ru.

First: 6mer-2-826 (RNTPRK)
Second: 6mer-2-827 (KYAEKK)
The Binding affinity of the first is lower: 11 Ru for the first, 13 Ru for the second.

Compared with 6mer-2-828 (RMKKKR), 6mer-2-829 (KKKIRR) is lower in Binding affinity: 32 Ru for the first, 22 Ru for the second.

Going from 6mer-2-830 (RMKFKR) to 6mer-2-831 (RMTWRK), the Binding affinity rises from 21 Ru to 29 Ru.

Going from 6mer-2-832 (KYHNRR) to 6mer-2-833 (RKTWRR), the Binding affinity falls from 32 Ru to 14 Ru.

First: 6mer-2-834 (RFWWKR)
Second: 6mer-2-835 (RHCGKR)
The Binding affinity of the first is higher: 28 Ru for the first, 20 Ru for the second.

Compared with 6mer-2-836 (KNTMKR), 6mer-2-837 (REDFRR) is higher in Binding affinity: 26 Ru for the first, 32 Ru for the second.

Compared with 6mer-2-838 (RCTVRK), 6mer-2-839 (KNHNRR) is higher in Binding affinity: 13 Ru for the first, 32 Ru for the second.

Compared with 6mer-2-840 (KDWDRK), 6mer-2-841 (KPNHRK) is higher in Binding affinity: 15 Ru for the first, 33 Ru for the second.

Compared with 6mer-2-842 (KPKMRR), 6mer-2-843 (KAPDRK) is higher in Binding affinity: 22 Ru for the first, 33 Ru for the second.

First: 6mer-2-844 (RDPKKK)
Second: 6mer-2-845 (KMKEKR)
The Binding affinity of the first is higher: 22 Ru for the first, 14 Ru for the second.

First: 6mer-2-846 (RFSFKR)
Second: 6mer-2-847 (RYCHKR)
The Binding affinity of the first is higher: 30 Ru for the first, 22 Ru for the second.

Compared with 6mer-2-848 (RMTERK), 6mer-2-849 (RNTAKK) is lower in Binding affinity: 29 Ru for the first, 13 Ru for the second.

Going from 6mer-2-850 (KTSMKR) to 6mer-2-851 (KFWWRR), the Binding affinity rises from 16 Ru to 19 Ru.

Compared with 6mer-2-852 (RNCERR), 6mer-2-853 (KHTGRR) is higher in Binding affinity: 28 Ru for the first, 29 Ru for the second.

First: 6mer-2-854 (RCNWKR)
Second: 6mer-2-855 (REMIKR)
The Binding affinity of the first is higher: 23 Ru for the first, 19 Ru for the second.

Compared with 6mer-2-856 (KEPMRR), 6mer-2-857 (KHTEKK) is higher in Binding affinity: 14 Ru for the first, 20 Ru for the second.

Going from 6mer-2-858 (KEEHRR) to 6mer-2-859 (RMDFRK), the Binding affinity falls from 30 Ru to 21 Ru.

First: 6mer-2-860 (KPNFRR)
Second: 6mer-2-861 (KDTDRK)
The Binding affinity of the first is higher: 31 Ru for the first, 21 Ru for the second.

Going from 6mer-2-862 (RHTFKK) to 6mer-2-863 (RKHWRR), the Binding affinity falls from 29 Ru to 17 Ru.

Compared with 6mer-2-864 (RKCAKK), 6mer-2-865 (RHCNRK) is higher in Binding affinity: 12 Ru for the first, 16 Ru for the second.

Compared with 6mer-2-866 (RDNPKK), 6mer-2-867 (KYWEKK) is higher in Binding affinity: 24 Ru for the first, 32 Ru for the second.

Compared with 6mer-2-868 (RTPNRR), 6mer-2-869 (RHDHKR) is lower in Binding affinity: 30 Ru for the first, 18 Ru for the second.

First: 6mer-2-870 (KMTEKK)
Second: 6mer-2-871 (REMPKR)
The Binding affinity of the first is lower: 21 Ru for the first, 31 Ru for the second.

Compared with 6mer-2-872 (KTHFRK), 6mer-2-873 (KNWGRR) is lower in Binding affinity: 28 Ru for the first, 11 Ru for the second.

Compared with 6mer-2-874 (KIHFRK), 6mer-2-875 (RIDHRK) is lower in Binding affinity: 33 Ru for the first, 13 Ru for the second.

6mer-2-876 (KEDNKR) and 6mer-2-877 (KPPERR) are the same in Binding affinity: 17 Ru for the first, 17 Ru for the second.

Compared with 6mer-2-878 (KETVRR), 6mer-2-879 (RTMDRR) is lower in Binding affinity: 24 Ru for the first, 19 Ru for the second.

Compared with 6mer-2-880 (RTHHKK), 6mer-2-881 (KDTEKK) is higher in Binding affinity: 12 Ru for the first, 33 Ru for the second.

First: 6mer-2-882 (RTPAKR)
Second: 6mer-2-883 (RTNEKR)
The Binding affinity of the first is lower: 15 Ru for the first, 22 Ru for the second.

Going from 6mer-2-884 (KMTMKK) to 6mer-2-885 (KCMVRR), the Binding affinity rises from 11 Ru to 17 Ru.

First: 6mer-2-886 (KTWVRR)
Second: 6mer-2-887 (RCPKKR)
The Binding affinity of the first is lower: 13 Ru for the first, 18 Ru for the second.

Compared with 6mer-2-888 (RIAKRK), 6mer-2-889 (REWDKK) is lower in Binding affinity: 17 Ru for the first, 12 Ru for the second.

Compared with 6mer-2-890 (RDNPKR), 6mer-2-891 (RTSIRK) is lower in Binding affinity: 30 Ru for the first, 28 Ru for the second.

First: 6mer-2-892 (KDENRK)
Second: 6mer-2-893 (REHVRR)
The Binding affinity of the first is higher: 27 Ru for the first, 17 Ru for the second.

Compared with 6mer-2-894 (RFHWRR), 6mer-2-895 (KYMAKK) is higher in Binding affinity: 22 Ru for the first, 28 Ru for the second.

First: 6mer-2-896 (RTCARR)
Second: 6mer-2-897 (RPAHKK)
The Binding affinity of the first is higher: 30 Ru for the first, 17 Ru for the second.

Going from 6mer-2-898 (KKKDKK) to 6mer-2-899 (KKMVKR), the Binding affinity falls from 16 Ru to 13 Ru.

Going from 6mer-2-900 (RFSAKK) to 6mer-2-901 (RYWDRK), the Binding affinity rises from 11 Ru to 34 Ru.

Compared with 6mer-2-902 (KPDVRK), 6mer-2-903 (KKNPKK) is higher in Binding affinity: 26 Ru for the first, 40 Ru for the second.

6mer-2-904 (KCCFKK) was tested, and the Binding affinity was 30 Ru.
